Tests used:
[1] = system: NC(=O)C1=CN([C@@H]2O[C@H](COP(=O)(O)OP(=O)(O)OC[C@H]3O[C@@H](n4cnc5c(N)ncnc54)[C@H](OP(=O)(O)O)[C@@H]3O)[C@@H](O)[C@H]2O)C=CC1; experiment: purified protein; type: biochemical, Anopheles minimus; details: 0.1 M Tris-Cl pH 7.5, 25 °C, co-substrate cytochrome c, extra flavins added
[2] = system: T1, CYP6AA3 reconstituted with rat CYPOR; experiment: benzyloxyresorufin O-dealkylation, fluorescence of resorufin, microsomes + purified CYPOR; type: biochemical, Anopheles minimus; details: 50 mM Tris-HCl pH 7.5; rat CYPOR as redox partner; apparent Km; read-out: CYP3AA3-mediated BROD activity (pmole resorufin produced/min/pmol P450) ^a / Km
T1 construct: CYP6AA3 in Sf9 baculovirus microsomes; purified rat CYPOR (pIN-rat CYPOR, E. coli C43 (DE3), Ni-NTA) added, ratio 3:1; with NADPH--cytochrome P450 reductase (Rattus norvegicus)

[3] = system: T2, CYP6AA3 reconstituted with flAnCYPOR; experiment: as above; type: biochemical, Anopheles minimus; details: 50 mM Tris-HCl pH 7.5; wild-type flAnCYPOR; apparent Km; read-out: CYP3AA3-mediated BROD activity (pmole resorufin produced/min/pmol P450) ^a / Km
T2 construct: CYP6AA3 in Sf9 baculovirus microsomes; with NADPH--cytochrome P450 reductase

Δ55AnCYPOR = target: T3, Δ55AnCYPOR (Anopheles minimus, UniProt A4ZIT2); experiment: flavin content of purified protein, fluorometric; type: binding; details: co-purified flavin; no affinity constant
T3 construct: soluble form lacking the N-terminal membrane region (Δ55), pET28a vector, expressed in E. coli BL21 (DE3), purified
T3 sequence (A4ZIT2 56-679): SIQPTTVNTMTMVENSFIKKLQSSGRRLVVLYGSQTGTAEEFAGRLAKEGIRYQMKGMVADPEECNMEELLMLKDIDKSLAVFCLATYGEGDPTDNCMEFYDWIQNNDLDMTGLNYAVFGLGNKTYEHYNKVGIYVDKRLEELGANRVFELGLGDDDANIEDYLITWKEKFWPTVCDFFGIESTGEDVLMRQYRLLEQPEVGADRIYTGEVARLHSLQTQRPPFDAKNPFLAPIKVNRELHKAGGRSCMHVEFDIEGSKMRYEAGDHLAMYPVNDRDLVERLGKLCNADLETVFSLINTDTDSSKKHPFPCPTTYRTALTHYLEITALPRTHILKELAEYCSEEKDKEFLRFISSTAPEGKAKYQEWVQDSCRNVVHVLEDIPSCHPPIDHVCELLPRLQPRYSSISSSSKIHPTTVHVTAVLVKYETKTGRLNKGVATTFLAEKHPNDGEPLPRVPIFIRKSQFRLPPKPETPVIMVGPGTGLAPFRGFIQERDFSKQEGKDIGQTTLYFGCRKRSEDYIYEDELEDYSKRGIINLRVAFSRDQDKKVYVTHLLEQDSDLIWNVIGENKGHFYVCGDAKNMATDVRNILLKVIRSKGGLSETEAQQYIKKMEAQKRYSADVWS
Excerpt: flavin content of purified protein, fluorometric on Δ55AnCYPOR

purified protein = substrate: NC(=O)C1=CN([C@@H]2O[C@H](COP(=O)(O)OP(=O)(O)OC[C@H]3O[C@@H](n4cnc5c(N)ncnc54)[C@H](OP(=O)(O)O)[C@@H]3O)[C@@H](O)[C@H]2O)C=CC1; experiment: purified protein; details: 0.1 M Tris-Cl pH 7.5, 25 °C, co-substrate cytochrome c, extra flavins added

## Δ55AnCYPOR (Anopheles minimus; L219F/L86F)
[1]
  Km: 6.49 ± 1.19 µM

## O=c1ccc2nc3ccc(OCc4ccccc4)cc3oc-2c1 [benzyloxyresorufin]
[2]
  Km: 1.69 ± 0.24 µM
[3]
  Km: 1.9 ± 0.61 µM

## Cc1cc2nc3c(=O)[nH]c(=O)nc-3n(C[C@H](O)[C@H](O)[C@H](O)COP(=O)(O)O)c2cc1C [FMN]
Δ55AnCYPOR
  FMN ^a: 0.52 ± 0.01 mol/mol

## Δ55AnCYPOR (Anopheles minimus; L219F/L86F/W678A)
[1]
  Km: 3.34 ± 0.83 µM

## Δ55AnCYPOR (Anopheles minimus; L219F/L86F/W678H)
[1]
  Km: 1.91 ± 0.44 µM

## Δ55AnCYPOR (Anopheles minimus; C427R/L219F/L86F)
[1]
  Km: 7.02 ± 1.75 µM

## Cc1cc2nc3c(=O)[nH]c(=O)nc-3n(C[C@H](O)[C@H](O)[C@H](O)COP(=O)(O)OP(=O)(O)OC[C@H]3O[C@@H](n4cnc5c(N)ncnc54)[C@H](O)[C@@H]3O)c2cc1C [FAD]
Δ55AnCYPOR
  FAD ^a: 0.64 ± 0.03 mol/mol

B1: Δ55AnCYPOR (Anopheles minimus) (protein)
chain: T3 sequence (A4ZIT2 56-679)
Purified protein
  Km: 9.61 ± 0.30 µM
